Common to all, as to test: fluorescence polarisation; titration: 5-FAM-labeled protein at 0.5 or 1 μM titrated with unlabeled protein; 20°C; analysis buffer (20 mM NaH2PO4, 50 mM NaCl, 1 mM DTT pH 7); single site binding model
For orientation: Polarisation of emitted light reports the rotation of a fluorescent probe.

Assay [1] concerns the target KAHRP K2, fluorescently labeled (C414A/C450A) (P. falciparum).
The target in assay [2] is PfEMP1 Acidic Terminal Segment (ATS) of variant PF08_0141, fluorescently labeled (Q150C) (P. falciparum).
Assay [3] concerns the target PfEMP1 ATS of variant PFF0845c, fluorescently labeled (H159C) (P. falciparum).

This note sets out measurements from paper PMC5570508.

As usually defined, the Kd is the free concentration of one partner at which half of the binding sites on the other are occupied at equilibrium, for simple one-to-one binding. High values mean weaker binding, low ones tighter binding.

Sequence of α spectrin construct spanning domains 17 to the protein C-terminus (P02549 1704-2395): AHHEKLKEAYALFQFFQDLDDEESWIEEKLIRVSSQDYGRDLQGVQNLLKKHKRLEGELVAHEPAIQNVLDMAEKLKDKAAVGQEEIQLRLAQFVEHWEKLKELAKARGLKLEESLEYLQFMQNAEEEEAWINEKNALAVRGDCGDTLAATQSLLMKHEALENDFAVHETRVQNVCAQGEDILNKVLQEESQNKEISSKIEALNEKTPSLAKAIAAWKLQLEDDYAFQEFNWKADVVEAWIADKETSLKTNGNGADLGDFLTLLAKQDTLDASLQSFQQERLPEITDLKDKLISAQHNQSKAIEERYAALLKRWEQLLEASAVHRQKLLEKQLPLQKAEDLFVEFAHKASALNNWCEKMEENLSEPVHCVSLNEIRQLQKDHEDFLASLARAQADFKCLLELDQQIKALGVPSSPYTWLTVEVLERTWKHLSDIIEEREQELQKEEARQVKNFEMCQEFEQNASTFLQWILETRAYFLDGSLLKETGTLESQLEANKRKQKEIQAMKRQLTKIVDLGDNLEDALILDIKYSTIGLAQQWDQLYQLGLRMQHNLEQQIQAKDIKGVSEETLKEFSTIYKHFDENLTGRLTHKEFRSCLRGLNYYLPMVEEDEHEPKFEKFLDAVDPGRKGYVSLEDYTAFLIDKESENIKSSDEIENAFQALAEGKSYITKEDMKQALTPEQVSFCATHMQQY
Sequence of spectrin α chain domains 12–16 (P02549 1174-1716): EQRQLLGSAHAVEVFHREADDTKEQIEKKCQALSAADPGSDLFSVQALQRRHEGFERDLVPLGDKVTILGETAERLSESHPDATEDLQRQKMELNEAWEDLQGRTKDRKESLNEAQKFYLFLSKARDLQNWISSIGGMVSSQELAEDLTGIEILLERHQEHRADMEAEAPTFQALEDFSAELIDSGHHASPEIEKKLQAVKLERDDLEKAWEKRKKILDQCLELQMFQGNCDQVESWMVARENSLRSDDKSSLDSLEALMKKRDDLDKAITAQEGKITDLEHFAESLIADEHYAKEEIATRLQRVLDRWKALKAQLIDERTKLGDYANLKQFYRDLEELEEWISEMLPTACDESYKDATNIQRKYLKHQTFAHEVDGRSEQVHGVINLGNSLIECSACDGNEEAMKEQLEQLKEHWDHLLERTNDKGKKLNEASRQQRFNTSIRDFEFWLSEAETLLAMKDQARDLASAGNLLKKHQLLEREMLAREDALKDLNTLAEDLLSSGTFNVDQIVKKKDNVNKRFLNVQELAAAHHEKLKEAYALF
Sequence of spectrin β chain domains 10–14 (P11277 1272-1804): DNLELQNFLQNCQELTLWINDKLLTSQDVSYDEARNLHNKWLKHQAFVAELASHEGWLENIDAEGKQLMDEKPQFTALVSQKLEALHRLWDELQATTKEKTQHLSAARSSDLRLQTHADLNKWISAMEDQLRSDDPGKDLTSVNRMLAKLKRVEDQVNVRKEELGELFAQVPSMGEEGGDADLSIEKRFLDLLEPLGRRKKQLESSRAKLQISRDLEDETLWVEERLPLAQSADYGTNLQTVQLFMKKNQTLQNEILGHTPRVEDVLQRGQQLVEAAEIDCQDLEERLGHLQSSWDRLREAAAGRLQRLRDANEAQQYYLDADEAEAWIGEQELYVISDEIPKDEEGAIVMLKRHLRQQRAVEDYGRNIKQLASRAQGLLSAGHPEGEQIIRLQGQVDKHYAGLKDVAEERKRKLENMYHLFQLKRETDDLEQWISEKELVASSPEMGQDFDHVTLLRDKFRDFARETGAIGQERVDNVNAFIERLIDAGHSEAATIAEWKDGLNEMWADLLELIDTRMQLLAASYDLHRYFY
Sequence of spectrin α chain domain 17 (P02549 1704-1828): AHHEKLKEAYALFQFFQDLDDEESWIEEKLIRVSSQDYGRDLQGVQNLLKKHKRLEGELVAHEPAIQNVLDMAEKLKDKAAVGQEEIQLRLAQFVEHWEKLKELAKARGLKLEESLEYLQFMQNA

In assay [1], “spectrin β chain domains 10–14 (from UniProt P11277 1272-1804) (domain or fragment)” had a Kd of 50 µM.
“spectrin α chain domains 12–16 (from UniProt P02549 1174-1716) (domain or fragment)” had an equilibrium dissociation constant (Kd) in assay [1] of 160 µM.
In assay [2], “α spectrin construct spanning domains 17 to the protein C-terminus (from UniProt P02549 1704-2395) (domain or fragment)” showed a Kd of 59 µM.
In assay [3], “spectrin α chain domain 17 (from UniProt P02549 1704-1828) (domain or fragment)” showed a Kd of 24 µM.
